Test [1] concerns the target B41 SOSIP.664-His trimer (HIV-1 isolate B41 (Clade B)). Nature of the test: native gel or EMSA. (Mobility shift assays separate free from complexed probe on a gel.)
For test [2] the target is unchanged. The test is described as follows: negative-stain electron microscopy.
The target in test [3] is BG505 SOSIP.664-His trimer (HIV-1 isolate BG505 (Clade A)). Nature of the test: SPR. A general note: In SPR one partner is held on a chip, and binding of the other changes the refractive index at the surface.
The target is the same in test [4].

Usually stoichiometry N stands for the number of molecules, sites or subunits per partner or assembly. For the substance B41 SOSIP.664-His trimer (complex), the stoichiometry N in test [1] and in test [2] was 3 in each case.
As a reminder, the Kd is a measure of binding affinity in units of concentration. A high value points to lower affinity. Usually koff stands for the rate constant with which the complex falls apart. One may read the kon as the rate constant with which the complex forms. In test [3], PGT151 Fab showed a KD1 (site 1, heterogeneous-ligand model) of under 0.1 nM; a KD2 (site 2, heterogeneous-ligand model) of 27 nM; a Kd of 2 nM; a Sm1 (stoichiometry of site 1, heterogeneous-ligand model) (Fab molecules per trimer) of 1.2. In test [3], this substance registered a Sm1+Sm2 (cumulative stoichiometry, heterogeneous-ligand model) (Fab molecules per trimer) of 1.9; a Sm2 (stoichiometry of site 2, heterogeneous-ligand model) (Fab molecules per trimer) of 0.7; a dissociation rate constant (koff) of 0.00018 s⁻¹; a koff1 (site 1, heterogeneous-ligand model) of under 1e-05 s⁻¹. In test [3], this substance yielded a koff2 (site 2, heterogeneous-ligand model) of 0.00076 s⁻¹; an on-rate (kon) of 87000 M⁻¹ s⁻¹; a kon1 (site 1, heterogeneous-ligand model) of 140000 M⁻¹ s⁻¹; a kon2 (site 2, heterogeneous-ligand model) of 28000 M⁻¹ s⁻¹. The substance also came in with a stoichiometry N (Fab molecules per trimer) in test [3] of 1.9.
For the substance PGT151 IgG (antibody), the IC50 of neutralization of BG505 Env-pseudotyped virus, TZM-bl assay in test [4] stood at 0.043 mg/L.

Values taken from article PMC9980222.
